# Data published in the DeepSol protein solubility set.
# Test: soluble on expression in E. coli; label from the status in PepcDB or PDB records
row,Sequence,soluble on expression in E. coli
1,AFNNNPSSVGAYSSGTYRNLAQEMGKTNIQQKVNSTFDNMFGYNNTQQLYYPYTENGVYKAHYIKAINPDEGDDIRTEGQSWGMTAAVMLNKQEEFDNLWRFAKAYQKNPDNHPDAKKQGVYAWKLKLNQNGFVYKVDEGPAPAGEEYFAFALLNASARWGNSGEFNYYNDAITMLNTIKNKLMENQIIRFSPYIDNLTDPSYHIPAFYDYFANNVTNQADKNYWRQVATKSRTLLKNHFTKVSGSPHWNLPTFLSRLDGSPVIGYIFNGQANPGQWYEFDAWRVIMNVGLDAHLMGAQAWHKSAVNKALGFLSYAKTNNSKNCYEQVYSYGGAQNRGCAGEGQKAANAVALLASTNAGQANEFFNEFWSLSQPTGDYRYYNGSLYMLAMLHVSGNFKFYNNTFN,soluble
2,GMTQLDTWLANTKPLIPVIVIDDLVHAIPMAKALVAGGVHLLEVTLRTEAGLAAISAIKKAVPEAIVGAGTVCTADDFQKAIDAGAQFIVSPGLTPELIEKAKQVKLDGQWQGVFLPGVATASEVMIAAQAGITQLKCFPASAIGGAKLLKAWSGPFPDIQFCPTGGISKDNYKEYLGLPNVICAGGSWLTESKLLIEGDWNEVTRRASEIVKLSDI,soluble
3,MGSDKIHHHHHHMKFSDIISKLEVTNYSLTQNPNNDPEITGMAAIDEATSGTLSYIEGAKFASFIAKTNASALILPQNEAMQAQAQERGIVWMATPEPRLLFAKAIALFYQPYTPTPEIHPTAVIHPTAKIGNDVYIGPHVVIQPGVEIGNGVIIHPNVVIYPGVKIGDRTILHANCTIEERSQIGADCVIHSGAVIGGEGFGFVPTRTGWYKMEQSGYVVLEDRVDIGCNTTIDRPSVGETRVGYDTKIDNLVQIAHGCQIGAGCAIAAQTGMAGGVKLGNRVILAGQVGIANQAKMGDGSTASAQTGILHDVKPGEVVSGTPAIPHKMYLKIAALYSRLPDMYQAFRQSQRQLEEEGKR,not soluble
4,MALSLYEKMLHKGMIIKNSNVYEKIKEIDTIIFDKTGTLTYGTPIVTQFIGDSLSLAYAASVEALSSHPIAKAIVKYAKEQGVKILEVKDFKEISGIGVRGKISDKIIEVKKAENNNDIAVYINGEPIASFNISDVPRPNLKDYLEKLKNEGLKIIILSGDKEDKVKELSKELNIQEYYSNLSPEDKVRIIEKLKQNGNKVLMIGDGVNDAAALALADVSVAMGNGVDISKNVADIILVSNDIGTLLGLIKNRKRLSNAIPSN,soluble
5,MGSDKIHHHHHHMSGAKVISVMNWKGGVGKTTMTHHLGTGLHMLTKEERLEYLGSEKMPRILFVDNDAQCNLSISCLHVEKYEDLVYKQNIPTIYDLYKLFICNESPVVDMHNYIIKNQVRMDNRRIFMGMDLLPAHQELVYLDMNIAMNSRASFQSGLISKEIYKYQYLNDILEPVCSDYDYIFIDCPPNLGYTTLNALYASEYCLIPTGLDHLSSYGIASLLKEIDRLNTEFATAVPDHPMIEVVGIVANNVEENREAPKRSQKLIRERLQDSYHELMFEPYLTRGDGIPNASEQGYPVYADRSANALKQGDLLLGILREFLDRI,not soluble
6,MPLKLTTYYQGSEIPDFPGTNTFHSKELFQIYEETPGYTPLLIMASEDGKPVARLLAAIRKSIRMFPPAFIKRCEIYGTGEYLTAEADKERIFGEMLEHLTTEALRNSFLIEFRNLENAMFGYKYFRSNRYFPVNWLRVRNSLHGIENAEQRFSPSRIRQIKKGLKNGAKVDEARTVEEIREFSNMLRHLYSSRIRKHFPNIIFFQHMDTRLIHSRQAKIFIVRYKDKIIGGSACIYSGNDAYLWFSGGMRKTYALQYPGILAVWKALQDAHQNGFRHMEFMDAGLPFKKHGYRDFVLRFGGKQSSTRRWFRFRWQWLNDLLIKIYV,not soluble
7,MEDYIKNWNKIISNCSFDNTYKMAWAKAIVETAISKDIDSALIISFEEIAELFLKYYWNQTIYFNLTQGSSLKKIPEALKYTKNLIDLYYAKKGDYFPQRYEKIIFEDFGIESEKNKTIKKIVKTLGQDVSWRFMNLSGETYPLYELVENQVVLSLENAKLLKKYSDFLFPMINYRWTQMLESFNHSPRISSKVRAIDEDSIKKRNNLNKFREFLDLEFSDNKRYCFYCGKEIVDDDLTIDHVIPWSFMYSDDIWNLVYCHRSENSSKSNRIPEETDVKALECRNKLLLEKLTENKISSKRVDELQLAIEKDYVKKFWISSRGLEHHHHHH,not soluble
8,CSDLPEIQNGWKTTSHTELVRGARITYQCDPGYDIVGSDTLTCQWDLSWSSDPPFCEKTEE,soluble
9,MGSDKIHHHHHHMQRIMVIGGPGSGKSTLGRKLGARLGLPVVHMDPIYWLGDWVERDKAEAMRMAKEVADGSQWVFEGNHFASMAYRAERADLIVFLDMPRVLRMWRILWRSLRYYGRTRPDMGPNCPERFNRAFLKFCWTYDREGRLRALGFVDDWRDRRRVRILTSRRQVAAFLVEIDRQ,not soluble
10,MSLKLSAREWKDFSLEELFTVRGTKTTPLIILRKNNKKREKQLPYVTTKSTYNGIDDFFSGFTEEGNVITIDSATDGYVFYQLNNFSASDHVEKLIPKFKLNKYIALFLVNCIKKATKCKYGYGYKFSQTRIKRQKIMLPASNNQPDFQFMERYIKEKHFNLKSRIKEKQNHEINDWRELDDVEWTPFSTSEVFNNIQRGKRLTKSNQIKGLTPYISSSGINNGLDNFISNNEKIREFDNCLTIANSGSVGSAFYHTYRFIASDHVTHLKNNNLNKFSYLFIANMLRRLEGKYSFNRGINDFRIKRERILLPTKNNRPEYEFMEQYMKRKENEILDRLEGHHHHHH,not soluble
11,MLKYEHIAKQLNAFIHQSNFKPGDKLPNVTQLKERYQVSKSTIIKALGLLEQDGLIYQAQGSGIYVRNIADANRINVFKTNGFSKSLGEHRMTSKVLVFKEMATPPKSVQDELQLNADDTVYYLERLRFVDDDVLCIEYSYYHKEIVKYLNDDIAKGSIFDYLESNMKLRIGFSDIFFNVDKLTSSEASLLQLSTGEPCLRYHQTFYTMTGKPFDSSDIVFHYRHAQFYIPSKK,soluble
12,MGSDKIHHHHHHMKEIDELTIKEYGVDSRILMERAGISVVLAMEEELGNLSDYRFLVLCGGGNNGGDGFVVARNLLGVVKDVLVVFLGKKKTPDCEYNYGLYKKFGGKVVEQFEPSILNEFDVVVDAIFGTGLRGEITGEYAEIINLVNKSGKVVVSVDVPSGIDSNTGKVLRTAVKADLTVTFGVPKIGHILFPGRDLTGKLKVANIGHPVHLINSINRYVITREMVRSLLPERPRDSHKGTYGKVLIIAGSRLYSGAPVLSGMGSLKVGTGLVKLAVPFPQNLIATSRFPELISVPIDTEKGFFSLQNLQECLELSKDVDVVAIGPGLGNNEHVREFVNEFLKTLEKPAVIDADAINVLDTSVLKERKSPAVLTPHPGEMARLVKKTVGDVKYNYELAEEFAKENDCVLVLKSATTIVTDGEKTLFNITGNTGLSKGGSGDVLTGMIAGFIAQGLSPLEASTVSVYLHGFAAELFEQDERGLTASELLRLIPEAIRRLKE,soluble
13,MAGQEHHYAVQVKWTGNRGKGTSGYRDYERDYTISTAGKADITGSSDPAFRGDPSRWNPEDLLVASLSACHKLWYLHFCSVNGIIVEDYVDNAEGTLVMEKDGAGQFSEVVLKPVITISKGDPARADELHHDAHDKCFIARSVNFPIRVQGTVKVV,not soluble
14,MTTRLEWAKASPDAYAAMLGLEKALAKAGLERPLIELVYLRTSQINGCAYCVNMHANDARKAGETEQRLQALCVWQETPYFTPRERAALAWTEQLARLSQGALPHGLLDELREHFDDKEIAELTLAVSAINAWNRFGVGMGMQPE,soluble
15,SSRGSGILPDEFMFAEFKRQCLSTENWVNKYDKNDMEVWVEQAPLSASINNKGNYSKVHKIRCQINIKDVSAATMYDVLHDGQYRKTWDPTMLESFDIARLAHNADVGYYSWICPKPLKNRDVVTLRSWQASENEYVIINFSVKHPKYPPRKDLVRAVSLMTGYLIKPTGPQSCTFTYLSQADPKGSLPKWVVNKASQVLAPKVLRSAHKAGQNYPAWKAANSPDHKPWLYPIQSELAMMDPAELSIQRGDSLENVDESSTRDAQENEDSS,soluble
16,GPGSMNVCSNTTKDPLTLMAMWGSMKGYNPEQGFSFEGPEKRLEVILRSTLETHVDGLRSLDDSVWSGVVGSLNAQIVSRESNEYINSYVLTESSLFVMKNRIILITCGTTTLLNSIPNILEAISAVRGELEWVSFMHKNYSFPWMQKGPHTSLADEFATLKQHFPTGKPYIFGPVDSDHYFLFCYDDIIRPCSSEDDTQLSMTMYGLDKEQTKYWFRDRFISTSAETAAIRAATHLDRVVDGTWTLHDLQFEPCGYSINAIRDEEYQTMHITPEDHCSFASYETNSRATNYSDRMKKVLGVFRPQRFTVIVFLDPESPVGKAYNEGKGIGVEPEYYPEYSLLHRTTNEFAPGYVAMKINYVRTAAVEETDAAVGGAEPGAKSGPD,not soluble
17,MSLAQKISATPAAGAQMTLAQADGIAFRELSFPEALKRAEVEDKLLFVDCFTTWCGPCKRLSKVVFKDSLVADYFNRHFVNLKMDMEKGEGVELRKKYGVHAYPTLLFINSSGEVVYRLVGAEDAPELLKKVKLGVESGGLSGLKKRYEAGDRDLAFICGYINALSAANREQEAGKVAADFLQGSEQKMLEDEDYFLVFYYYVHDVNSSAFQYAVNHKKEITDKFPRQAASLDRRLLEDWIAGSYAYLKVDESNHCTFDEQGLDAYVAKMKQMNVAEADMIGESLRLSRDGIMKQWDSFVKRGDKILASHTILGDEGHLLQWVNWLNKECADMSLREKAAQWCDKACEELIKKNEEIKKNLPPGAIPAISMVDHKGQLLQVAEKLRKLMQQSEGHHHHHH,soluble
18,MSLIKCVCLVIEEQEKLLLVQSRNREKYYFPGGKIDIGETYKQALQRELNEELQLDIPESSLIYMHTVVGEAYPQKNMKTELNCFYTTADIDWSTLVPSQEITDLQWIDKKDEHKIAPAVITWIEEQQHFKNIEREGHHHHHH,soluble
19,MICFCAERFQWRRLWQIPGDLLFPGPADMARALLYRRPTEPSTIPVRHGSQFFAVRIRRHRRARRYTLRIHPSDREAILTMPPRGTLADAKEFAQRHGAWIAARLGRLPKAAPFLPGTLVPLRGHDHKIVHRTGRGTVWTEVRESGEKILCVAGETEHIERRVLDFLKREARKDLQKACDRYAPELGVKVTRLSIRDQSSRWGSCTSAGSLSFSWRLILAPSYVLDYLAAHEVAHLVEMNHSARFWRVVGKVCPQMERAKTWLDSYGNDLHRYGISDLEHHHHHH,soluble
20,MSLTQRITMEDIARQSGVSLATVSLVLRDKPGINDETRRRVLDIARDLGYRKRLNHEKLVSQSLHNAGVIVKASIGDDSPLTNPFYAPIVAGIEAACRKMHINLMYATVPVDMDNHPQEMPRLLSEDHLDGVLLVGAFADATITKLLQREGIPAVLVDGYSHEHVYDSVVSDNFRAAYEAVSYLISYGHRHIGLIGTTKEAYPSIAERRKGYIQALTDHGIHDQYFGDCLLTMHEGSDTSSILLQRHPQITALFCANDMMAIGATQAARALHRQIPQDLSIIGFDNIDLAQHVAPALTTMHVDKVSMGRFAVQLLANRAEYPDQAPATVSLRPRLLERQSVQREGHHHHHH,soluble
21,MAHHHHHHMELPFQWDDGNFISPFLTSGDDTLRVLAAWLNDSPLLRFQHGGALRLTDLGCGDGSALLSLSAGLFTLWGASGCRDVSPLQLTAVGLDLDEELILAARRRAEAIIVPPPHRLHCVFETVDVRQLDAAQYFPLSESSRHVLFVYLLPEGLEAIREKLLEIISRVALLVSNRWEVPFLARWKRVKLQNLHLYQYVGDGAN,not soluble
